Two substances from doi:10.64898/2025.12.12.693948 can be followed below.

In assay [1] the target is ankyrin-G (AnkG) lacking the E35a-encoded peptide, endogenous, Ank3 E35a-/- mouse cerebellum (mouse (endogenous in cerebellum)) (UniProt G5E8K5). The assay can be described thus: co-IP; mouse cerebellum whole tissue lysate (500 μg total protein; WT or Ank3 E35a-/-); anti-AnkG antibody (Santa Cruz sc-12719) on Protein G magnetic beads, overnight at 4°C; washed with NT2 buffer; immunoblot with anti-IP3R1 or anti-Na-K ATPase; normalised to the AnkG 190 kDa isoform.

The target of assay [2] is FLAG-tagged AnkG UPA-DD domains without the E35a-encoded peptide (mouse). The assay is described as follows: co-IP; N2a cells 48 h after transfection with FLAG-UPA-DD minigene plasmids with or without E35a; Pierce IP lysis buffer; anti-FLAG M2 antibody on Protein G magnetic beads; immunoblot with anti-IP3R1.
Chain of FLAG-tagged AnkG UPA-DD domains without the E35a-encoded peptide (mouse) (G5E8K5 whole entry, the tested form may be a part): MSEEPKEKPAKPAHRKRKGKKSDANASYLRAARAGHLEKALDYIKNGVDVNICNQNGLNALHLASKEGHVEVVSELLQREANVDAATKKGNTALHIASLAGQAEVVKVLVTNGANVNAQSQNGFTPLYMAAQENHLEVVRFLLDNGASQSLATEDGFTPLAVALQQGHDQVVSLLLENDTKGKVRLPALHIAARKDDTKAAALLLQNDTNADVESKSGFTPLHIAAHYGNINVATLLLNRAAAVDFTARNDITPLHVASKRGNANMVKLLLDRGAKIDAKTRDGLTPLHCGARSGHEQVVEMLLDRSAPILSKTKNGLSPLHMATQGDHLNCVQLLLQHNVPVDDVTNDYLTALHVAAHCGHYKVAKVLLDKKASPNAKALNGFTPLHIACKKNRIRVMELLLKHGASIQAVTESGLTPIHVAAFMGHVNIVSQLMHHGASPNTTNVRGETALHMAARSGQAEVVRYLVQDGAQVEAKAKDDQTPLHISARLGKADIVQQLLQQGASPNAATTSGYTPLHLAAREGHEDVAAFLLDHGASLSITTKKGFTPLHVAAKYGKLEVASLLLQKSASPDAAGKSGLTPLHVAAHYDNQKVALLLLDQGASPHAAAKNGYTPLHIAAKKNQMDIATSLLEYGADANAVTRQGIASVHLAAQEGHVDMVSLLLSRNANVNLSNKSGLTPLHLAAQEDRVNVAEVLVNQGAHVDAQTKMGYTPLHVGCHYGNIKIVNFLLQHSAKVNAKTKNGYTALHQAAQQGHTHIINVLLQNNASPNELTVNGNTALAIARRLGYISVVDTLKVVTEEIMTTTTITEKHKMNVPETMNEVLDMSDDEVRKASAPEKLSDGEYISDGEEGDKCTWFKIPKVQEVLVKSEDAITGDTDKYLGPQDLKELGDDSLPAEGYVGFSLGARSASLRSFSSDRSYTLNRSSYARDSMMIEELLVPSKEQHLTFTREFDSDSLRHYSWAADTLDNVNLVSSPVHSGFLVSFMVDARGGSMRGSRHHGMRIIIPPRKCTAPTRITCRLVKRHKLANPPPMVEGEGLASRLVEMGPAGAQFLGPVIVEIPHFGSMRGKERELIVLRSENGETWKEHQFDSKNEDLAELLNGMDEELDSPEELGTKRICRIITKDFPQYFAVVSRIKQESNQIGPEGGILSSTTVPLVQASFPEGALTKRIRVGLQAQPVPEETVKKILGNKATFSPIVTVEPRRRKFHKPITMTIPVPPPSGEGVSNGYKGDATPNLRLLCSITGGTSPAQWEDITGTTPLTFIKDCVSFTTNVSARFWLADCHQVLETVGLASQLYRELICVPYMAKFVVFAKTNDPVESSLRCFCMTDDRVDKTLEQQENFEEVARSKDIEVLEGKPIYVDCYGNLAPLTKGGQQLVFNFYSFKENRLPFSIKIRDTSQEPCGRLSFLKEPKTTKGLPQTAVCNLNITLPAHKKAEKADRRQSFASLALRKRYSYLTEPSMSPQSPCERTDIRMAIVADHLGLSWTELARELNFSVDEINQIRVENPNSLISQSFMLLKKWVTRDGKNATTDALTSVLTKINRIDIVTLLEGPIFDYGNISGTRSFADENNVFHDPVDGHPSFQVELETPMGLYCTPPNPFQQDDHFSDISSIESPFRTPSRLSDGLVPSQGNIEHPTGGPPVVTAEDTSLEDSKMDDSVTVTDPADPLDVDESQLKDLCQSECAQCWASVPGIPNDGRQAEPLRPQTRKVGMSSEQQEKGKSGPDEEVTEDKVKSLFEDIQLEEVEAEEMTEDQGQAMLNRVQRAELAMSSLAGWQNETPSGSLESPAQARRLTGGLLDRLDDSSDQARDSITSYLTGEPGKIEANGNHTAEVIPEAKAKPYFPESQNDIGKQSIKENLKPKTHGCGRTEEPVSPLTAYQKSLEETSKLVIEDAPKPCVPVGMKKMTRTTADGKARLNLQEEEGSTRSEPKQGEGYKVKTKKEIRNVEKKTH

Take “type 1 inositol trisphosphate receptor (InsP3R1), endogenous, mouse cerebellum (from UniProt P11881 1-2749) (natural protein)”: the percent reduction of co-precipitated InsP3R1 against WT in assay [1] came to 77%. In the case of “type 1 inositol trisphosphate receptor (InsP3R1), endogenous, N2a cells (from UniProt P11881 1-2749) (natural protein)”, in assay [2], the percent of InsP3R1 pulled down relative to UPA-DD with E35a stood at 30%.
